{"source": "patent US6027911", "key": {"[1]": {"target": "Met-Asp-human growth hormone (human) (UniProt P01241)"}, "[2]": {"target": "Met-Arg-Human Proinsulin Analog (B28 Lys, B29 Pro) (human) (UniProt P01308)"}}}
{"substance": "bovine dipeptidylaminopeptidase 1 (enzyme)", "values": [{"measurement": "human growth hormone (hGH) conversion yield (reverse phase chromatography)", "setting": "[1]", "result": 37, "unit": "%"}, {"measurement": "extent of conversion of MR-KPB-hPI to KPB-hPI (reverse phase HPLC)", "setting": "[2]", "result": 98, "unit": "%"}]}
